Target: PDL1 on the surface of TC-1 cells (UniProt Q9EP73)
Assay: flow cytometry, staining of TC-1 tumor cells (background control)

Sequence of UniProt Q9EP73 (Q9EP73 19-290 limits assumed): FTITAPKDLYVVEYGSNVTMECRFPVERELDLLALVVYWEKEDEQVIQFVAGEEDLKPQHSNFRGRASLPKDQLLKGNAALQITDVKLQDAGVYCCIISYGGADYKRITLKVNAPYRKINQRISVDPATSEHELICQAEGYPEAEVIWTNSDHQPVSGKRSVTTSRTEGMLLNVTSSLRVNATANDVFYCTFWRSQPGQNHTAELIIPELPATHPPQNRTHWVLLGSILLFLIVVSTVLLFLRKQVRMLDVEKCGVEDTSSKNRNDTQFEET

Work on PE-conjugated isotype control antibody yielded a median fluorescent intensity (MFI) of 184.

Reference: patent US20190134195A1
